{
  "source": "patent US20130244255A1",
  "about": "“ANTIBODIES DIRECTED TO GPNMB AND USES THEREOF” (priority 2006, published 2013)",
  "key": {"[1]": {"assay": "Pharmacokinetics of CR011-vcMMAE after intravenous administration (sandwich ELISA of antibody in serum)", "assay_type": "in vivo, athymic mice", "settings": "for A (pre-exponential constant for alpha phase) / AUC (total area under the curve from 0 to infinity) / Alpha (exponential rate constant for alpha phase) / Alpha-Half Life / B (pre-exponential constant for beta phase) / Beta (exponential rate constant for beta phase) / Beta-Half Life / Cl (total or systemic clearance) / MRT (mean residence time) / Volume (volume of central compartment) / Vss (steady-state volume of distribution): athymic mice, i.v.", "procedure": "The concentration-time pattern was bi-phasic. […] Nevertheless, the compound disappeared very slowly from the peripheral blood (T1/2β=10.3 days) with serum concentrations of […] and 10 μg/mL remaining in the blood for 6 weeks after dosing."}, "[2]": {"system": "TK10", "assay": "Anti-GPNMB antibody mediated indirect cell killing (saporin secondary conjugate, colony count)", "assay_type": "cell-based", "settings": "antibody at 50 ng/mL with goat anti-human IgG-saporin 100 ng/well", "procedure": "UACC-62, a GPNMB antigen expressing cell line, and TK10, a non-expressing cell line were plated onto flat bottom 96-well tissue culture plates (Becton Dickinson, Franklin Lakes, N.J., USA) at a density of 3000 cells per well. Once the cells reached ˜25% confluency, 100 ng/well of secondary antibody-toxin conjugate (goat anti-human IgG-saporin; Advanced Targeting Systems, San Diego, USA, HUM-ZAP; cat #IT-22) was added. […] An anti-EGFR monoclonal antibody (MS-269-PABX, NeoMarkers, Fremont, Calif., USA) was used as a positive primary antibody control. Chemotherapy reagent 5-FU at 600 uM was used as a positive reagent control. On day 5, the cells were trypsinized, transferred to 6-well tissue culture plates and incubated at 37° C. Plates were examined daily and between 8-10 days, all plates were Giemsa stained and colonies were counted."}, "[3]": {"system": "Lymphoma or leukemia cell lines", "assay": "Clonogenic assay (methylcellulose) with 1.15.1-AE, lymphoma and leukemia panel", "assay_type": "cell-based, human", "procedure": "Lymphoma or leukemia cell lines were mixed with methylcellulose base media (R&D Systems, USA) and in various concentrations of unconjugated and Auristatin E-conjugated 1.15.1 antibody before plating onto 6-well tissue culture plates (Becton Dickinson, Franklin Lakes, N.J., USA). […] Plates were incubated at 37° C. and examined daily. On days 14-18, colonies on the plates were counted."}, "[4]": {"target": "T1, GPNMB (Homo sapiens, UniProt Q14956)", "T1 construct": "we cloned the human CG56972 extracellular domain (ECD; aa 23-480); made in house; host or cells: HEK 293 cells", "T1 sequence (Q14956 23-492)": "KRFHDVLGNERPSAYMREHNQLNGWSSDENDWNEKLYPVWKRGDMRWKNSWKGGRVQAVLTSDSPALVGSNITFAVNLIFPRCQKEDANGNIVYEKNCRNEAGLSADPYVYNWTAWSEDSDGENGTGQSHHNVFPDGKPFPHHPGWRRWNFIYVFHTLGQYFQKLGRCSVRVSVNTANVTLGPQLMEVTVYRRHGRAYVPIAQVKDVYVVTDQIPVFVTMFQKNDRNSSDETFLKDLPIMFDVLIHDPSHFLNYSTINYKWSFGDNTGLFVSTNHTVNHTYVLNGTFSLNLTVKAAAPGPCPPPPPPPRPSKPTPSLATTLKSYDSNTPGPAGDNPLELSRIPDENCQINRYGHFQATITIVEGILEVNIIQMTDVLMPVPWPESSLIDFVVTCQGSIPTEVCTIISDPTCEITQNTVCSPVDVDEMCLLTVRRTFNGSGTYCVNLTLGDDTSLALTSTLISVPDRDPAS", "assay": "BiaCore 2000 analysis of hybridoma supernatants binding to GPNMB", "procedure": "Certain Hybridoma cell supernatants (29) were analyzed for binding to GPNMB by BiaCore® 2000 biosensor equipped with a research-grade CM5 sensor chip. A 1:25 dilution of cell supernatant was passed over a protein A surface for 5 min followed by washing the surface for 10 mins. Subsequently, GPNMB was injected for 90 sec. over the surface at a concentration of 880 nM followed by dissociation. Double-referenced binding data were obtained by subtracting the signal from a control flow cell and subtracting the baseline drift of a buffer injected just prior to the antigen injection. GPNMB binding data for each mAb was normalized for the amount of mAb captured on each surface. Normalized, drift corrected responses were also measured. The sensorgrams were fit to a simple 1:1 kinetic model."}, "[5]": {"system": "SK-Mel-2 cells", "assay": "Apoptosis analysis (Annexin V-FITC / PI)", "assay_type": "cell-based, human", "settings": "SK-Mel-2, 48 hour, 1000 ng/mL", "procedure": "(§1) Briefly, cells were pulsed at the indicated times with 30 μM of bromodeoxyuridine (BrdU, Sigma) for 30 min, harvested, fixed and permeabilized in methanol. Nascent DNA synthesis was detected by anti-bromodeoxyuridine-FITC (BD Biosciences, San Jose, Calif.) staining. Total DNA content was detected using propidium iodide (PI, Sigma). For apoptosis analysis, cells were treated as above and labeled with Annexin V-FITC followed by propidium iodide exclusion using the Annexin V-FITC Apoptosis Detection kit I (BD PharMingen, San Diego, Calif.) according to the manufacturer's protocols. Flow cytometry (as described in the previous Example) was used to assay both cell cycle and apoptosis studies.\n(§2) To investigate this possibility, analysis of apoptosis using Annexin-V surface binding and loss of propidium iodide (PI) exclusion was performed."}, "[6]": {"system": "TK-10 control cells", "assay": "Apoptosis analysis (Annexin V-FITC / PI)", "assay_type": "cell-based, human", "settings": "TK-10, 48 hour, 1000 ng/mL", "procedure": "as §1, §2"}, "[7]": {"settings": "mAb captured on protein A, GPNMB at 880 nM, 1:1 kinetic model"}},
  "data": [
    {"substance": "CR011-vcMMAE: CR011 conjugated to monomethyl auristatin E through a protease cleavable valine-citrulline linker; approx. 4 drugs per antibody", "values": [
      {"measurement": "T1/2β", "setting": "[1]; 1 or 10 mg/kg intravenously", "value": 10.3, "unit": "days"},
      {"measurement": "A (pre-exponential constant for alpha phase)", "setting": "[1]; 1 mg/kg", "value": 8.97, "unit": "µg/mL"},
      {"measurement": "AUC (total area under the curve from 0 to infinity)", "setting": "[1]; 1 mg/kg", "value": 3712, "unit": "µg·h/mL"},
      {"measurement": "Alpha (exponential rate constant for alpha phase)", "setting": "[1]; 1 mg/kg", "value": 0.179, "unit": "h⁻¹"},
      {"measurement": "Alpha-Half Life", "setting": "[1]; 1 mg/kg", "value": 0.162, "unit": "days"},
      {"measurement": "B (pre-exponential constant for beta phase)", "setting": "[1]; 1 mg/kg", "value": 9.82, "unit": "µg/mL"},
      {"measurement": "Beta (exponential rate constant for beta phase)", "setting": "[1]; 1 mg/kg", "value": 0.00269, "unit": "h⁻¹"},
      {"measurement": "Beta-Half Life", "setting": "[1]; 1 mg/kg", "value": 10.8, "unit": "days"},
      {"measurement": "Cl (total or systemic clearance)", "setting": "[1]; 1 mg/kg", "value": 6.46, "unit": "mL/day/kg"},
      {"measurement": "MRT (mean residence time)", "setting": "[1]; 1 mg/kg", "value": 15.3, "unit": "days"},
      {"measurement": "Volume (volume of central compartment)", "setting": "[1]; 1 mg/kg", "value": 0.0532, "unit": "L/kg"},
      {"measurement": "Vss (steady-state volume of distribution)", "setting": "[1]; 1 mg/kg", "value": 0.099, "unit": "L/kg"},
      {"measurement": "A (pre-exponential constant for alpha phase)", "setting": "[1]; 10 mg/kg", "value": 74.6, "unit": "µg/mL"},
      {"measurement": "AUC (total area under the curve from 0 to infinity)", "setting": "[1]; 10 mg/kg", "value": 41210, "unit": "µg·h/mL"},
      {"measurement": "Alpha (exponential rate constant for alpha phase)", "setting": "[1]; 10 mg/kg", "value": 0.0812, "unit": "h⁻¹"},
      {"measurement": "Alpha-Half Life", "setting": "[1]; 10 mg/kg", "value": 0.3555, "unit": "days"},
      {"measurement": "B (pre-exponential constant for beta phase)", "setting": "[1]; 10 mg/kg", "value": 113, "unit": "µg/mL"},
      {"measurement": "Beta (exponential rate constant for beta phase)", "setting": "[1]; 10 mg/kg", "value": 0.00281, "unit": "h⁻¹"},
      {"measurement": "Beta-Half Life", "setting": "[1]; 10 mg/kg", "value": 10.3, "unit": "days"},
      {"measurement": "Cl (total or systemic clearance)", "setting": "[1]; 10 mg/kg", "value": 5.83, "unit": "mL/day/kg"},
      {"measurement": "MRT (mean residence time)", "setting": "[1]; 10 mg/kg", "value": 14.5, "unit": "days"},
      {"measurement": "Volume (volume of central compartment)", "setting": "[1]; 10 mg/kg", "value": 0.0532, "unit": "L/kg"},
      {"measurement": "Vss (steady-state volume of distribution)", "setting": "[1]; 10 mg/kg", "value": 0.0845, "unit": "L/kg"},
      {"measurement": "volume of distribution at steady state (Vss)", "setting": "[1]; in words", "value": "very low"}
    ]},
    {"substance": "CR011: fully human monoclonal antibody that specifically binds to GPNMB; VH SEQ ID NO: 20, VL SEQ ID NO: 29", "values": [
      {"measurement": "cell death in GPNMB negative TK10 cells", "setting": "[2]", "value": "less than 24%"},
      {"measurement": "effect on growth of all antigen positive hematopoietic cell lines (in words)", "setting": "[3]", "value": "no effect on growth"},
      {"measurement": "binding to GPNMB (in words)", "setting": "[4]; BiaCore, 1:25 dilution of cell supernatant", "value": "strong binding"},
      {"measurement": "Kd", "setting": "[4]; [7]", "value": 0.052, "unit": "µM"},
      {"measurement": "ka", "setting": "[4]; [7]", "value": 16524, "unit": "M⁻¹ s⁻¹"},
      {"measurement": "kd", "setting": "[4]; [7]", "value": 0.000855, "unit": "s⁻¹"},
      {"measurement": "% AnnV+/PI+ UR", "setting": "[5]", "value": 0.45, "unit": "%"},
      {"measurement": "% AnnV+/PI− LR", "setting": "[5]", "value": 4.74, "unit": "%"},
      {"measurement": "% AnnV−/PI+ UL", "setting": "[5]", "value": 0.36, "unit": "%"},
      {"measurement": "% AnnV+/PI+ UR", "setting": "[6]", "value": 0.34, "unit": "%"},
      {"measurement": "% AnnV+/PI− LR", "setting": "[6]", "value": 0.55, "unit": "%"},
      {"measurement": "% AnnV−/PI+ UL", "setting": "[6]", "value": 0.83, "unit": "%"}
    ]}
  ]
}
